Results as given in the supplement of paper PMC10126150.
± gives the standard deviation of the averaged measurements.

Test system: ATP
Experiment: switch fluorescence ratio, 500 uM ATP over buffer (Cy3 cluster intensity, sum of 5 cycles each) (fold (ratio)); higher = stronger signal-on switching upon ATP binding; sequences stand for … in TCGTCGGCAGCGTCAGATGTGTATAAGAGACAGTTTTTTTTTTTTTTTTTTTTTTTTT…TC
Conditions: aptamer strand: ATP DNA aptamer (quencher-CACCTGGGGGAGTATTGCGGAGGAAGG + anchor), 100 nM annealed; ATP concentration: 500 uM
In short: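 Imaging in selection buffer was followed by imaging after 15 min with 500 uM ATP at 22 °C, for Cy3-labelled switching-strand clusters annealed to 100 nM quencher-labelled ATP aptamer on a modified Illumina MiSeq flow-cell. Five of these buffer/ATP cycles ran, separated by NaOH stripping and re-annealing. The fluorescence ratio per cluster is summed target-cycle over summed buffer-cycle Cy3 intensity, averaged per switch-domain sequence; clusters outside 100-1000 RFU were removed.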
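Note: ATP exposure 15 min at 22 °C before imaging.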

GGGCCTGGGG gave a switch fluorescence ratio of 0.998 ± 0.048.
GGGCCTTGGG gave a switch fluorescence ratio of 1.03 ± 0.049.
GGGCCTTTTT was tested, and the switch fluorescence ratio was 0.9864 ± 0.006.
GGGCGAAGTC gave a switch fluorescence ratio of 0.975 ± 0.03.
Sequence GGGCGACGGC has a switch fluorescence ratio of 1.04 ± 0.047.
With GGGCGACGGG the switch fluorescence ratio was 0.996 ± 0.046.
In the case of GGGCGAGCTC, the switch fluorescence ratio is reported as 0.9982 ± 0.0061.
For GGGCGAGGGG, the switch fluorescence ratio was 1.01 ± 0.026.
GGGCGCGTTT gave a switch fluorescence ratio of 0.9623 ± 0.0072.
For GGGCGCTAGG, the switch fluorescence ratio was 0.971 ± 0.014.
GGGCGCTGGG was tested, and the switch fluorescence ratio was 1 ± 0.032.
GGGCGGATTT was tested, and the switch fluorescence ratio was 1.024 ± 0.008.
GGGCGGCGGG was tested, and the switch fluorescence ratio was 1.05 ± 0.053.
GGGCGGGATG was tested, and the switch fluorescence ratio was 0.984 ± 0.037.
In the case of GGGCGGGTGT, the switch fluorescence ratio is reported as 0.987 ± 0.059.
In the case of GGGCGGTGGG, the switch fluorescence ratio is reported as 1 ± 0.068.
GGGCGTATGT was tested, and the switch fluorescence ratio was 0.981 ± 0.023.
In the case of GGGCGTTGTG, the switch fluorescence ratio is reported as 1.05 ± 0.11.
GGGCTAAAAG was tested, and the switch fluorescence ratio was 0.97428 ± 3.4e-05.
GGGCTAGACG showed a switch fluorescence ratio of 0.997 ± 0.085.
GGGCTAGTCA gave a switch fluorescence ratio of 0.965 ± 0.019.
GGGCTATCCG gave a switch fluorescence ratio of 0.983 ± 0.024.
For GGGCTATGGG, the switch fluorescence ratio was 0.997 ± 0.049.
Sequence GGGCTCATGG has a switch fluorescence ratio of 1.042 ± 0.0061.
Sequence GGGCTGAAGG has a switch fluorescence ratio of 1.004 ± 0.01.
For GGGCTGACAG, the switch fluorescence ratio was 1.035 ± 0.0012.
GGGCTGATAG was tested, and the switch fluorescence ratio was 1.01 ± 0.025.
GGGCTTAACG gave a switch fluorescence ratio of 0.982 ± 0.014.
In the case of GGGCTTATGG, the switch fluorescence ratio is reported as 0.975 ± 0.054.
Sequence GGGCTTCGTT has a switch fluorescence ratio of 0.9929 ± 0.0074.
GGGCTTGGGG gave a switch fluorescence ratio of 0.999 ± 0.031.
In the case of GGGCTTTTTC, the switch fluorescence ratio is reported as 1.02 ± 0.034.
GGGGAAAACT showed a switch fluorescence ratio of 1.01 ± 0.022.
GGGGAAAGTC was tested, and the switch fluorescence ratio was 1 ± 0.032.
GGGGAAATGG was tested, and the switch fluorescence ratio was 1.01 ± 0.025.
Sequence GGGGAACGGC has a switch fluorescence ratio of 0.963 ± 0.036.
GGGGAACGTT gave a switch fluorescence ratio of 0.947 ± 0.049.
For GGGGAACTTC, the switch fluorescence ratio was 1.05 ± 0.045.
Sequence GGGGAAGCCA has a switch fluorescence ratio of 0.979 ± 0.024.
Sequence GGGGAAGGCA has a switch fluorescence ratio of 0.946 ± 0.084.
In the case of GGGGAAGGCC, the switch fluorescence ratio is reported as 1.01 ± 0.018.
GGGGAAGTAC was tested, and the switch fluorescence ratio was 1.53 ± 0.31.
For GGGGAATGGC, the switch fluorescence ratio was 1.05 ± 0.1.
In the case of GGGGAATTTA, the switch fluorescence ratio is reported as 1 ± 0.024.
For GGGGACATGC, the switch fluorescence ratio was 0.982 ± 0.078.
Sequence GGGGACCAGT has a switch fluorescence ratio of 0.9845 ± 0.0031.
GGGGACCCTG was tested, and the switch fluorescence ratio was 0.974 ± 0.029.
For GGGGACCGGC, the switch fluorescence ratio was 0.954 ± 0.041.
In the case of GGGGACGAAA, the switch fluorescence ratio is reported as 0.997 ± 0.013.
GGGGACGAAT showed a switch fluorescence ratio of 1.002 ± 0.0025.
GGGGACGACC gave a switch fluorescence ratio of 1.03 ± 0.017.
GGGGACGGGC was tested, and the switch fluorescence ratio was 1.04 ± 0.075.
With GGGGACTGGG the switch fluorescence ratio was 1 ± 0.058.
For GGGGACTTAG, the switch fluorescence ratio was 0.9854 ± 0.0025.
GGGGACTTGG gave a switch fluorescence ratio of 1 ± 0.027.
In the case of GGGGAGACTG, the switch fluorescence ratio is reported as 0.956 ± 0.028.
GGGGAGGAAA gave a switch fluorescence ratio of 0.999 ± 0.029.
GGGGAGGCAC gave a switch fluorescence ratio of 0.9854 ± 0.002.
GGGGAGGGGA showed a switch fluorescence ratio of 1.01 ± 0.04.
For GGGGAGGGTG, the switch fluorescence ratio was 1.05 ± 0.074.
GGGGAGGTTG showed a switch fluorescence ratio of 0.991 ± 0.037.
GGGGAGGTTT gave a switch fluorescence ratio of 0.966 ± 0.02.
With GGGGAGTCGA the switch fluorescence ratio was 1.03 ± 0.068.
Sequence GGGGAGTGAA has a switch fluorescence ratio of 0.992 ± 0.031.
In the case of GGGGAGTTAC, the switch fluorescence ratio is reported as 1.35 ± 0.44.
Work on GGGGATAAGA yielded a switch fluorescence ratio of 0.985 ± 0.036.
Sequence GGGGATAAGC has a switch fluorescence ratio of 0.992 ± 0.048.
In the case of GGGGATACGC, the switch fluorescence ratio is reported as 1.03 ± 0.012.
GGGGATACTG showed a switch fluorescence ratio of 1.31 ± 0.33.
Work on GGGGATCGTT yielded a switch fluorescence ratio of 1.02 ± 0.021.
In the case of GGGGATGAGC, the switch fluorescence ratio is reported as 1.04 ± 0.037.
GGGGATGCAG showed a switch fluorescence ratio of 0.985 ± 0.049.
Sequence GGGGATGTGC has a switch fluorescence ratio of 1.01 ± 0.04.
GGGGATTAAT showed a switch fluorescence ratio of 0.99 ± 0.042.
Work on GGGGATTACG yielded a switch fluorescence ratio of 0.984 ± 0.026.
For GGGGATTAGG, the switch fluorescence ratio was 0.988 ± 0.015.
For GGGGATTATG, the switch fluorescence ratio was 0.997 ± 0.046.
GGGGATTCAA gave a switch fluorescence ratio of 0.988 ± 0.018.
Sequence GGGGATTGCT has a switch fluorescence ratio of 0.986 ± 0.025.
GGGGATTTTG was tested, and the switch fluorescence ratio was 0.9746 ± 0.0022.
GGGGATTTTT showed a switch fluorescence ratio of 1 ± 0.035.
Sequence GGGGCAAATT has a switch fluorescence ratio of 1.05 ± 0.12.
GGGGCAACGG gave a switch fluorescence ratio of 1.05 ± 0.12.
Work on GGGGCACTGG yielded a switch fluorescence ratio of 1.03 ± 0.028.
Work on GGGGCAGAGG yielded a switch fluorescence ratio of 0.997 ± 0.043.
GGGGCAGGTG showed a switch fluorescence ratio of 1.27 ± 0.39.
GGGGCATAAG was tested, and the switch fluorescence ratio was 1.01 ± 0.013.
Work on GGGGCATGAG yielded a switch fluorescence ratio of 1.04 ± 0.021.
GGGGCATTTA showed a switch fluorescence ratio of 0.9643 ± 0.0047.
GGGGCCAGCT showed a switch fluorescence ratio of 0.974 ± 0.043.
With GGGGCCATTT the switch fluorescence ratio was 0.99 ± 0.033.
With GGGGCCCAGG the switch fluorescence ratio was 1 ± 0.067.
GGGGCCGAAT was tested, and the switch fluorescence ratio was 1.01 ± 0.021.
Work on GGGGCGATTG yielded a switch fluorescence ratio of 1.02 ± 0.013.
GGGGCGCGGA gave a switch fluorescence ratio of 1.09 ± 0.12.
With GGGGCGGAGG the switch fluorescence ratio was 0.987 ± 0.047.
With GGGGCGGGGG the switch fluorescence ratio was 1.02 ± 0.043.
GGGGCGTGCA gave a switch fluorescence ratio of 1.03 ± 0.034.
For GGGGCGTTTT, the switch fluorescence ratio was 0.998 ± 0.023.
GGGGCTAAGA showed a switch fluorescence ratio of 0.993 ± 0.015.
GGGGCTATGT gave a switch fluorescence ratio of 1.08 ± 0.14.
For GGGGCTCATT, the switch fluorescence ratio was 0.983 ± 0.021.
For GGGGCTGGAG, the switch fluorescence ratio was 1.03 ± 0.063.
In the case of GGGGCTGTGC, the switch fluorescence ratio is reported as 0.976 ± 0.034.
In the case of GGGGCTTACG, the switch fluorescence ratio is reported as 0.9893 ± 0.0087.
GGGGCTTGCG was tested, and the switch fluorescence ratio was 0.948 ± 0.045.
In the case of GGGGCTTTAA, the switch fluorescence ratio is reported as 1.18 ± 0.35.
Work on GGGGCTTTGG yielded a switch fluorescence ratio of 0.98 ± 0.025.
Sequence GGGGCTTTTA has a switch fluorescence ratio of 0.97 ± 0.01.
For GGGGGAAACG, the switch fluorescence ratio was 0.989 ± 0.031.
GGGGGAAAGA gave a switch fluorescence ratio of 0.989 ± 0.047.
With GGGGGAAAGC the switch fluorescence ratio was 0.984 ± 0.049.
GGGGGAAAGG gave a switch fluorescence ratio of 1 ± 0.025.
For GGGGGAACAC, the switch fluorescence ratio was 1.05 ± 0.044.
In the case of GGGGGAAGAT, the switch fluorescence ratio is reported as 1.01 ± 0.074.
GGGGGAGGCC gave a switch fluorescence ratio of 1.02 ± 0.056.
GGGGGAGGGG showed a switch fluorescence ratio of 1 ± 0.043.
Work on GGGGGAGGTA yielded a switch fluorescence ratio of 0.977 ± 0.031.
Work on GGGGGAGGTC yielded a switch fluorescence ratio of 0.989 ± 0.021.
GGGGGAGTTA showed a switch fluorescence ratio of 0.989 ± 0.026.
GGGGGATAGT gave a switch fluorescence ratio of 0.998 ± 0.032.
GGGGGATCGA was tested, and the switch fluorescence ratio was 1.04 ± 0.086.
Work on GGGGGATCTT yielded a switch fluorescence ratio of 1 ± 0.03.
With GGGGGATGG the switch fluorescence ratio was 0.994 ± 0.016.
GGGGGATGTA was tested, and the switch fluorescence ratio was 0.948 ± 0.032.
In the case of GGGGGATGTC, the switch fluorescence ratio is reported as 1 ± 0.034.
GGGGGATTTC was tested, and the switch fluorescence ratio was 1.12 ± 0.26.
In the case of GGGGGATTTG, the switch fluorescence ratio is reported as 0.998 ± 0.013.
Sequence GGGGGCACTC has a switch fluorescence ratio of 0.986 ± 0.031.
GGGGGCCACT showed a switch fluorescence ratio of 0.975 ± 0.041.
For GGGGGCCGGG, the switch fluorescence ratio was 1.01 ± 0.052.
With GGGGGCCTGT the switch fluorescence ratio was 1.01 ± 0.035.
In the case of GGGGGCGCGG, the switch fluorescence ratio is reported as 0.996 ± 0.015.
Work on GGGGGCGGAA yielded a switch fluorescence ratio of 1 ± 0.027.
GGGGGCGGGT was tested, and the switch fluorescence ratio was 1 ± 0.044.
GGGGGCTAAG showed a switch fluorescence ratio of 1.026 ± 0.0039.
GGGGGCTATG was tested, and the switch fluorescence ratio was 0.99 ± 0.015.
In the case of GGGGGCTTAG, the switch fluorescence ratio is reported as 0.988 ± 0.038.
GGGGGGACGC gave a switch fluorescence ratio of 1.02 ± 0.013.
Sequence GGGGGGACTA has a switch fluorescence ratio of 1.03 ± 0.031.
GGGGGGAGCC gave a switch fluorescence ratio of 0.996 ± 0.015.
With GGGGGGATGA the switch fluorescence ratio was 0.992 ± 0.024.
In the case of GGGGGGCAAA, the switch fluorescence ratio is reported as 1 ± 0.015.
For GGGGGGCAGA, the switch fluorescence ratio was 1 ± 0.029.
With GGGGGGCATT the switch fluorescence ratio was 0.99 ± 0.033.
In the case of GGGGGGCGCA, the switch fluorescence ratio is reported as 1.02 ± 0.038.
GGGGGGCGCG was tested, and the switch fluorescence ratio was 1.01 ± 0.025.
With GGGGGGCTAG the switch fluorescence ratio was 1 ± 0.058.
In the case of GGGGGGGCAA, the switch fluorescence ratio is reported as 1.24 ± 0.48.
GGGGGGGCCA was tested, and the switch fluorescence ratio was 1.01 ± 0.041.
GGGGGGGCTT was tested, and the switch fluorescence ratio was 0.998 ± 0.031.
For GGGGGGGGT, the switch fluorescence ratio was 1 ± 0.02.
GGGGGGGGTA gave a switch fluorescence ratio of 1 ± 0.044.
